# Data as given in patent publication US20230233645A1, “EFFECTIVE TREATMENTS FOR VASCULAR ASSOCIATED MACULOPATHY, SEVERE MACULOPATHY, LATE-STAGE MACULOPATHY, AND ABERRANT CHORIOCAPILLARIS” (UNIVERSITY OF UTAH RESEARCH FOUNDATION, priority 2011, published 2023).
# pIC50: −log10 of the molar value.
# What was measured:
# DQ elastin = assay: In vitro elastin degradation assay using DQ elastin; format: biochemical; details: DQ elastin substrate
# Protocol: Therefore, studies were performed to determine whether HTRA1 degrades elastin, a major component of Bruch's membrane. Recombinant HTRA1 was incubated with dye-labeled elastin at 37° C. for two hrs and the fluorescence of the released elastin peptides was monitored at 513 nm. […] In an additional positive control assay, HTRA1 elastase activity was measured by fluorescence using various concentrations of elastase enzyme starting with 0.04 ng/well of porcine pancreatic elastase and 100 ng/well of ProteaImmun HtrA1. DQ Elastin substrate was 25 ug/ml.
# Recombinant HtrA1 protein expressed and purified from Sf9 cells was purchased from ProteaImmun (Cat. #30600103). The HtrA1 elastase activity was measured using a fluorescent EnzChekElastase Assay Kit from Invitrogen (Cat. #E12056) using the protocol provided, except substrate concentration was 12.5 µg/mL. HtrA1 concentration was titrated from 200-12.5 ng/well in two-fold dilutions. Activity was measured in 30-minute increments for a total of 2 hours.
# The explanation for the elastin degradation in both the Bruch's membrane and the choroid vessels in the HTRA1 mice is that the protease activity of overexpressed HTRA1, which is secreted from RPE, caused the degeneration. Since HTRA1 was not known to have elastase activity, an in vitro elastin degradation assay was performed using DQ elastin, a soluble elastin labeled with quenched BODIPY FL dye, as a substrate. Purified recombinant human HTRA1 degraded elastin with a specific activity of 4.4±0.8 u/mg (n=3). […] To eliminate the possibility that the depletion of the elastic layers of the choroidal vessels and Bruch's membrane was the result of downregulation of elastin expression, we analyzed the protein level of soluble elastin in the RPE/choroid of hHTRA1^+ and WT mice by western blot. […] This is similar to what has been observed in human donors with AMD and with aberrant choriocapillaris lobules.
# HTRA1 = HTRA1 (Homo sapiens, UniProt Q92743); details: binds covalently to the active-site serine of HTRA1; cited from earlier work
# Sequence of HTRA1 (Q92743 23-480): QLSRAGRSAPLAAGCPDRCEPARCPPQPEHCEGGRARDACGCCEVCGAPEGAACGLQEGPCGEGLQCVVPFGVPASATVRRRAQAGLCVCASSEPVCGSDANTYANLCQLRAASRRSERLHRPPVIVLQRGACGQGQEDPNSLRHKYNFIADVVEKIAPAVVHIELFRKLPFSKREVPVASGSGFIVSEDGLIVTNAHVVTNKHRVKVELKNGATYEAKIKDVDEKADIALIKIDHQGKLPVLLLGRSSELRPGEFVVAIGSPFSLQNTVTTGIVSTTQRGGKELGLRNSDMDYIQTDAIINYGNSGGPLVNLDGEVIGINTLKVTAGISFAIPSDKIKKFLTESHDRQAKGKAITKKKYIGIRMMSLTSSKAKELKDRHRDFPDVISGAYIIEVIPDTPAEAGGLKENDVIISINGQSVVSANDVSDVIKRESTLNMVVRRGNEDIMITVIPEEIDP
Substance,specific activity of elastin degradation (DQ elastin),"elastase activity, times less than that of porcine pancreas elastase (DQ elastin)",pIC50 (HTRA1)
porcine pancreas elastase: reference elastase enzyme,135±5.5 u/mg,–,–
recombinant human HTRA1: purified recombinant human HTRA1 serine protease,4.4±0.8 u/mg,~30 times,–
DPMFKLboroV,–,–,5.59
